Measurements: patent US20140329289, “ANTI-FH APTAMERS, METHOD FOR PRODUCING SAME, AND USES THEREOF” (Laboratoire Francais du Fractionnement et des …, published 2014)

Columns and labels:
[1] = molecular target: T1, Factor H (complement factor H), plasma (Homo sapiens, UniProt P08603 P08603:19-1231); assay: SPR; binding stability; 10 mM MgCl2, pH 7.5; conditions: tags: LFB preparation (Biacore, amine-coupled NHS/EDC on CM5 chip, 5813 RU); Calbiochem 341274 also used in SELEX
[2] = molecular target: T1, Factor H (complement factor H), plasma; assay: pulldown; affinity chromatography on aptamer-agarose; 74% of A254 retained and eluted with EDTA; 50 mM MgCl2, 50 mM NaCl, pH 7.5; conditions: tags: LFB preparation (Biacore, amine-coupled NHS/EDC on CM5 chip, 5813 RU); Calbiochem 341274 also used in SELEX; label: biotin
Method: The plasma factor H is eluted with a 50 mM Tris+500 mM EDTA buffer at pH 8.0. The elution peak is collected according to the OD profile.

[3] = molecular target: T1, Factor H (complement factor H), plasma; assay: SPR; rank 2 of 5 truncations; 50 mM NaCl, 50 mM MgCl2, pH 7.5; conditions: tags: LFB preparation (Biacore, amine-coupled NHS/EDC on CM5 chip, 5813 RU); Calbiochem 341274 also used in SELEX
[4] = molecular target: T1, Factor H (complement factor H), plasma; assay: SPR; rank 3 of 5 truncations; 50 mM NaCl, 50 mM MgCl2, pH 7.5; conditions: tags: LFB preparation (Biacore, amine-coupled NHS/EDC on CM5 chip, 5813 RU); Calbiochem 341274 also used in SELEX
[5] = molecular target: T1, Factor H (complement factor H), plasma; assay: SPR; strongest of the five truncations; 50 mM Tris, 50 mM NaCl, 50 mM MgCl2, pH 7.5; p444 calls the FH recombinant, methods say LFB FH; conditions: tags: LFB preparation (Biacore, amine-coupled NHS/EDC on CM5 chip, 5813 RU); Calbiochem 341274 also used in SELEX
[6] = molecular target: T1, Factor H (complement factor H), plasma; assay: SPR; rank 4 of 5 truncations; 50 mM NaCl, 50 mM MgCl2, pH 7.5; conditions: tags: LFB preparation (Biacore, amine-coupled NHS/EDC on CM5 chip, 5813 RU); Calbiochem 341274 also used in SELEX

T1 sequence (P08603 19-1231, one chain of several): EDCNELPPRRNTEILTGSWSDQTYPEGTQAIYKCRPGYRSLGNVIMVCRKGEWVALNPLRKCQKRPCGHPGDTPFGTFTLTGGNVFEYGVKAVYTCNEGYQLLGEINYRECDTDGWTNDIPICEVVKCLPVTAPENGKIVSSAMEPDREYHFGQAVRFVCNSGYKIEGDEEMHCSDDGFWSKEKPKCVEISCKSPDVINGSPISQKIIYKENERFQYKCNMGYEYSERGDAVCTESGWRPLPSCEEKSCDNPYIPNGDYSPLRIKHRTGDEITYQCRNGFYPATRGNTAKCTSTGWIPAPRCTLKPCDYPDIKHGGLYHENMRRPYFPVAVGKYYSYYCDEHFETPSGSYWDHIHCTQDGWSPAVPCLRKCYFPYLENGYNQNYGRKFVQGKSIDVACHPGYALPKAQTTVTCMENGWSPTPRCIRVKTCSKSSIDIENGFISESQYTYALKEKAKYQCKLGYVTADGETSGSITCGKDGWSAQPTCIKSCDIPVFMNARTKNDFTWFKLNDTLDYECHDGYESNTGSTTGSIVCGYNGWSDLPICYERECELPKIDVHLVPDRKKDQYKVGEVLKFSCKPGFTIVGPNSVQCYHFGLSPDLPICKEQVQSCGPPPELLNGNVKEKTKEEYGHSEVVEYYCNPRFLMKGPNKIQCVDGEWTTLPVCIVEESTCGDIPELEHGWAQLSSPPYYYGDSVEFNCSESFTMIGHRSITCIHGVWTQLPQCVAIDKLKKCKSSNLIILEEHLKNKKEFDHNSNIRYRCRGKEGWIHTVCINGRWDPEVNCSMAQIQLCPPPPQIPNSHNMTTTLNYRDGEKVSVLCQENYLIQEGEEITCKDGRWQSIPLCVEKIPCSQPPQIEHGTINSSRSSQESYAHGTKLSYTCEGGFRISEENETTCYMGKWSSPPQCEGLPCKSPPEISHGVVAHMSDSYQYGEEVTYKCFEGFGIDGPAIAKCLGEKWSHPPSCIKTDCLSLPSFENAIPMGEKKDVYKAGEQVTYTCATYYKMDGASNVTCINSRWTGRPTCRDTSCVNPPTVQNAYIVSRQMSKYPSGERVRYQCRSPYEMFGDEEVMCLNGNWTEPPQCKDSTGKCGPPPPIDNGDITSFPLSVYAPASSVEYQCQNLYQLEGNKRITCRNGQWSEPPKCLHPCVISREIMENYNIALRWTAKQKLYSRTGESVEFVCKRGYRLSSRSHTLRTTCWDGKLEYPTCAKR

B1: FAM1-7 (ssDNA)
DNA: GGGTCAATGCCAGGTCTCGGGGGGCCGGTTATACGGGTCAGGCGGTTATACGGTATTCATCGGCTCGCAAGCAGTC
binding signal [1]: 15.4 RU

B2: FAM1-3 (ssDNA)
DNA: GGGTCAATGCCAGGTCTCGGACCGCGATGGAGAGGGGTCTGGTGGTTATACGCTATGCATCGGCTCGCAAGCAGTC
binding signal [1]: 20.9 RU

B3: FAM1-4 (ssDNA)
DNA: GGGTCAATGCCAGGTCTCGGGCCGCGATGGAGAGGGGTCTGGTGGTTATACGCTATGCATCGGCTCGCAAGCAGTC
binding signal [1]: 26.2 RU

B4: FAM3 (ssDNA)
DNA: GGGTCAATGCCAGGTCTCTGAGGCGCAGATGTGGAGGCTTTTACAGGCGGTGCGGAACATCGGCTCGCAAGCAGTC
binding signal [1]: 11.7 RU

B5: FAM1-12 (ssDNA)
DNA: GGGTCAATGCCAGGTCTCACCGGGTCAGGCGGTTATACGGGTGAGGGCAGGTACATACATCGGCTCGCAAGCAGTC
binding signal [1]: 18.2 RU

B6: FAM1-13 (ssDNA)
DNA: GGGTCAATGCCAGGTCTCACCGGGTCAGGCGGTTATACGGGTGGGGGCAGGTACATACATCGGCTCGCAAGCAGTC
binding signal [1]: 30.6 RU

B7: FAM2-3 (ssDNA)
DNA: GGGTCAATGCCAGGTCTCCCGGTTACCTCCATTGGTGGTGTTAGTGGCTTTGTAGGATATCGGCTCGCAAGCAGTC
binding signal [1]: 18.2 RU

B8: MaptH1.1 (ssDNA)
DNA: GGGTCAATGCCAGGTCTCGGGCACGGGTCAGGCGGTTATACGGTGCCCATTGTTCTTTATCGGCTCGCAAGCAGTC
binding result [2]: binds

B9: FAM1-5 (ssDNA)
DNA: GGGTCAATGCCAGGTCTCGCAGAGGTGCGAGGGGCGGTGGGGTCTGGTGGTTATACGCATCGGCTCGCAAGCAGTC
binding signal [1]: 21.2 RU

B10: FAM2-2 (ssDNA)
DNA: GGGTCAATGCCAGGTCTCCCGGTTACTGCCGTAGTTGTCTTACGGTGGTGTTAGTGGCATCGGCTCGCAAGCAGTC
binding signal [1]: 22.4 RU

B11: FAM1-8 (ssDNA)
DNA: GGGTCAATGCCAGGTCTCAATCAGAAGGGTCTGGTGGTTATACGTTCATGTATTGGGTATCGGCTCGCAAGCAGTC
binding signal [1]: 36 RU

B12: FAM1-9 (ssDNA)
DNA: GGGTCAATGCCAGGTCTCGGGGTGCGAGGGTCTGGTGGTTATACGTCGTCACCTCTAGATCGGCTCGCAAGCAGTC
binding signal [1]: 57.8 RU

B13: FAM1-6 (ssDNA)
DNA: GGGTCAATGCCAGGTCTCGAGGAACGTGGGGTCAGGTGGTTATACGCAGGGTACCGGGATCGGCTCGCAAGCAGTC
binding signal [1]: 30 RU

GGGCACGGGTCAGGCGGTTATACGGTGCCCATTGTTCTTT (ssDNA) [MaptH1.1 N19-58]
binding result [3]: binds

B14: IND1 (ssDNA)
DNA: GGGTCAATGCCAGGTCTCGGTGGGAGGTGAGGTCGTTGGACGGTGGCAGGGGATTTTGATCGGCTCGCAAGCAGTC
binding signal [1]: 20.1 RU

GGGCACGGGTCAGGCGGTTATACGGTGCCCATTGT (ssDNA) [MaptH1.1 N19-53]
binding result [4]: binds

B15: FAM2-6 (ssDNA)
DNA: GGGTCAATGCCAGGTCTCCCGGTTACCATCGAGGACGTCGCTTGGTGTTTGTGGCATGATCGGCTCGCAAGCAGTC
binding signal [1]: 22.1 RU

B16: FAM2-7 (ssDNA)
DNA: GGGTCAATGCCAGGTCTCCCGGTTACCAAGATCGTTGTTCTTGGTGTTAGTGGCATTCATCGGCTCGCAAGCAGTC
binding signal [1]: 22.1 RU

B17: FAM2-1 (ssDNA)
DNA: GGGTCAATGCCAGGTCTCCCGGTTACCGCGCTAAGCTTGGCGATGGTGTTAGTGGCTGATCGGCTCGCAAGCAGTC
binding signal [1]: 29.6 RU

B18: FAM2-4 (ssDNA)
DNA: GGGTCAATGCCAGGTCTCCCGGTTACCAGTTGGTGTTTGTGGCTTTGCACGTCTGCATATCGGCTCGCAAGCAGTC
binding signal [1]: 27.6 RU

B19: FAM1-11 (ssDNA)
DNA: GGGTCAATGCCAGGTCTCGGGGCAGGCGGTTATACGGAGAGCTTCTTACATGGGCCCTATCGGCTCGCAAGCAGTC
binding signal [1]: 16.9 RU

CAGGTCTCGGGCACGGGTCAGGCGGTTATACGGTGCCC (ssDNA) [MaptH1.1 N13-48 (MaptH1.1CSO)]
binding result [5]: binds

B20: FAM2-5 (ssDNA)
DNA: GGGTCAATGCCAGGTCTCCCGGTTACCAACTATGATAGTATGGTGTTTGTGGCATGATCGGCTCGCAAGCAGTC
binding signal [1]: 22.2 RU

GGGCACGGGTCAGGCGGTTATACGGTGCCC (ssDNA) [MaptH1.1 N19-48]
binding result [6]: binds

B21: FAM4 (ssDNA)
DNA: GGGTCAATGCCAGGTCTCCAAAGGGGGGGGTTGGGGGACCGTCCGTTGTTGATCTCACATCGGCTCGCAAGCAGTC
binding signal [1]: 25.9 RU

B22: FAM1-10 (ssDNA)
DNA: GGGTCAATGCCAGGTCTCTGGGGGAGGGAGGGTCTGGGGGTTATACGTCACTAGCAAAATCGGCTCGCAAGCAGTC
binding signal [1]: 73.5 RU
